The record followed here is patent US20240343803A1 (SHANDONG SIMCERE BIOPHARMACEUTICAL, published 2024).

Broadly, the EC50 is the concentration at which the effect is half-maximal. In general, IC50 refers to the concentration that inhibits the measured activity by half. A word on the Kd: it is the constant that tells how readily two partners part at equilibrium. A word on the koff: it is the first-order rate constant of dissociation. Broadly, the kon is a measure of how fast the partners come together.

In assay [1] the target is T1, Full-length cynomolgus monkey TIGIT on CHO-K1 cells (CHO-K1 cynomolgus monkey TIGIT) (cynomolgus monkey).
T1 construct: NCBI XP_015300911.1
The experiment in a line: cell binding, CHO-K1 cynomolgus monkey TIGIT. The gist of the method:
(§1)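 Binding was measured by flow cytometry after a 60-minute, 4° C incubation of the antibodies with 2×10⁵ CHO-K1 cells displaying full-length human or cynomolgus monkey TIGIT. Antibody titration: 12 points, threefold serial dilution from 80 nM, in 1% BSA-PBS.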

The target of assay [2] is T2, Full-length human TIGIT on CHO-K1 cells (CHO-K1 human TIGIT) (human, UniProt Q495A1 22-244).
T2 construct: NCBI XP_024309156.1; the entry includes the signal peptide (limits not recoverable); The strain (high, medium, low) is named under assay; also called high expression strain 1D2; medium expression strain 2D10
T2 sequence: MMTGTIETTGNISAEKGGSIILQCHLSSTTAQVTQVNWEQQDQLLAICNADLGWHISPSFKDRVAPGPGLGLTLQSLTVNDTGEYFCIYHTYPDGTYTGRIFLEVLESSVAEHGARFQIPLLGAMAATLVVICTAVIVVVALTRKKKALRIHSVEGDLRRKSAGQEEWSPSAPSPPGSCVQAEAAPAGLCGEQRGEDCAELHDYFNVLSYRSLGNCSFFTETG
Briefly: cell binding, CHO-K1 human TIGIT high expression strain. The gist of the method: as §1

Assay [3] has as its target T3, Fusion protein of extracellular domain of human TIGIT and mouse IgG2a Fc fragment (human TIGIT ECD-mFc) (human).
T3 construct: The entry includes the signal peptide (limits not recoverable) and the mouse IgG2a Fc
T3 chain: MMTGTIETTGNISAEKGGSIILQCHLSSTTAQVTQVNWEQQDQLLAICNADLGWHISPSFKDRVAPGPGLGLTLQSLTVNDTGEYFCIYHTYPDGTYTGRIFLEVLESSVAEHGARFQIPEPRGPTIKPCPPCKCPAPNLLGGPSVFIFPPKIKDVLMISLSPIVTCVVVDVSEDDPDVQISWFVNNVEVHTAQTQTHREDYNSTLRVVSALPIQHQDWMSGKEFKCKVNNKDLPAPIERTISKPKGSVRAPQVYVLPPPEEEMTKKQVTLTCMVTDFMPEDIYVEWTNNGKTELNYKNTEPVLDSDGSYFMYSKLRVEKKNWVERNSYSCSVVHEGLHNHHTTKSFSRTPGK
Briefly: ELISA, human TIGIT ECD-mFc. In short, it runs like this: (§2)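 Antibodies diluted to 13 nM in 1% BSA, then 3-fold serial dilution for 12 concentrations, incubated with milk-blocked plates at 37° C for 1.5-2 h. Bound antibody detected with HRP-labelled secondary antibody (1:5000, 37° C, 1 h) and TMB, stopped with 1M HCl; OD450 nm read.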
A general note: An ELISA detects its analyte on a solid surface through an enzyme-linked reagent.

Assay [4] concerns the target T4, Fusion protein of extracellular domain of human TIGIT and human IgG1 Fc fragment (human TIGIT ECD-hFc) (human).
T4 construct: The entry includes the signal peptide (limits not recoverable) and the human IgG1 Fc
Briefly: blocking of TIGIT ECD-hFc binding to CHO-K1 CD155 cells. The gist of the method:
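Cell-based ELISA on CHO-K1 CD155 cells, cultured overnight, fixed and blocked with 5% skim milk-PBS. Antibodies were premixed for 0.5 h with human TIGIT ECD-hFc (working concentration 30 ng/mL), then added and held at 37° C for 1.5-2 h. Bound TIGIT was detected with HRP secondary antibody (1:5000, 37° C, 1 h) and TMB, read as OD450 nm. IC50 came from the inhibition curves.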

The target in assay [5] is T5, Fusion protein of extracellular domain of cynomolgus monkey TIGIT and mouse IgG2a Fc fragment (cynomolgus … (cynomolgus monkey)).
T5 construct: The entry includes the signal peptide (limits not recoverable) and the mouse IgG2a Fc
Briefly: ELISA, cynomolgus monkey TIGIT ECD-mFc. In short, it runs like this: as §2

Assay [6] deals with T6, Fusion protein of extracellular domain of human TIGIT and His-tag (human TIGIT ECD-his) (human).
T6 chain: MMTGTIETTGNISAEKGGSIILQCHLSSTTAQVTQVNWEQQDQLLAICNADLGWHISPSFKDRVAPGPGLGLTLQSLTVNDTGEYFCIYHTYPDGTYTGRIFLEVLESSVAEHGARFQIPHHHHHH
The experiment in a line: BIAcore.

Assay [7] has as its target T6, Fusion protein of extracellular domain …. Briefly: BIAcore; reference itself.
Assay [8] has the same target. Briefly: BIAcore; KD ratio, by the numbers to TIGIT-005-H2L1 of r33.

T5 sequence (chain, as listed by the source limits assumed): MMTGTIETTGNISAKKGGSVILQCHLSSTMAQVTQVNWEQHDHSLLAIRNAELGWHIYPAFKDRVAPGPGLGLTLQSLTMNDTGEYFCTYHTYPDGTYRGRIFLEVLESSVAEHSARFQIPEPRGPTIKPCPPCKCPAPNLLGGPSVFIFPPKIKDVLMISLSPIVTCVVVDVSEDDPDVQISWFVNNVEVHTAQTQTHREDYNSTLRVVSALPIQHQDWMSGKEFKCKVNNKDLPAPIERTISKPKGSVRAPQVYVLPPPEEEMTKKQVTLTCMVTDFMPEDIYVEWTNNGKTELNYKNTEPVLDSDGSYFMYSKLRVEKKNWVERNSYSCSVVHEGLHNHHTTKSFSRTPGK
T4 sequence (chain, as listed by the source limits assumed): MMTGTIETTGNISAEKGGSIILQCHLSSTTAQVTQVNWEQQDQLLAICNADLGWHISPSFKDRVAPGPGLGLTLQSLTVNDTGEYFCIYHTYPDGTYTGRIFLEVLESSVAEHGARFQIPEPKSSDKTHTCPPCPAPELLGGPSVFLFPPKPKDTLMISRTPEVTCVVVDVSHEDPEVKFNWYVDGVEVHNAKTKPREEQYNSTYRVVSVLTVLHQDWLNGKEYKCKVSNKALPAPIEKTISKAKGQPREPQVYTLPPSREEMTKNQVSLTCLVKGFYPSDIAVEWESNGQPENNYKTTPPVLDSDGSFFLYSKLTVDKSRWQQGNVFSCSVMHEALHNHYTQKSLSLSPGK
T1 sequence (chain, as listed by the source limits assumed): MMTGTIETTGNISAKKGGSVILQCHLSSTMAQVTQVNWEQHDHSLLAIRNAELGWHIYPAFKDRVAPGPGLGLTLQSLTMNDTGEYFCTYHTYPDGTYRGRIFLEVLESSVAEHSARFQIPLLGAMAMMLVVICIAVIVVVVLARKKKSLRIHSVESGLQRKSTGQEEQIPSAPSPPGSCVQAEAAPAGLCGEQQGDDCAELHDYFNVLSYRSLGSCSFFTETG

B1: TIGIT-CHI-005 (antibody, V domains shown)
VH: QVQLQQSGAELVRPGTSVKVSCKASGYAFTNYLIEWVKQRPGQGLEWIGVINPGSGGTNYKEKFKGKATLTADKSSSTAYMQLSSLTSEDSAVYFCARGEYFFFDYWGQGTTLTVSS
VL: DIVMTQSHKFMSTSVGDRVSITCKASQHVSNGVAWYQHKPGQSPKLLIYSASYRYTGVPDRFTGTGSGTDFTFTISSVQAEDLAVYYCQQHYNTPHTFGGGTKLEIK
notes: Human-mouse chimeric antibody
Consider B1, for which the EC50 in assay [1] was 0.0265 nM; in assay [2], 0.026 nM; in assay [3] it was 0.019 nM; in assay [5], 0.0165 nM. For the same molecule, the IC50 in assay [4] amounted to 0.36 nM. The same molecule showed a Kd in assay [6] of 0.0276 nM. Besides, in assay [6], the koff was found to be 0.000113 s⁻¹. Further, the kon in assay [6] came out at 4.76e+06 M⁻¹ s⁻¹. Besides, the “Fold change vs chimeric antibodies (KD)” value in assay [7] is 1 fold.

B2: TIGIT-005-H2L1a (antibody, V domains shown)
VH: EVQLVQSGAEVKKPGASVKVSCKASGYAFTNYLIEWVRQAPGQRLEWMGVINPGSGGTNYKEKFKGRVTITADKSSSTAYMELSSLRSEDTAVYYCARGEYFFFDYWGQGTTVTVSS
VL: DIVMTQSPDSLAVSLGERATINCKASQHVSQGVAWYQHKPGQSPKLLIYSASYRYTGVPDRFSGSGSGTDFTLTISSLQAEDVAVYYCQQHYNTPHTFGGGTKVEIK
notes: Humanized anti-TIGIT antibody with NG-site mutation in VL
Regarding B2, the EC50 in assay [1] came to 0.0561 nM; in assay [2], 0.0129 nM; in assay [3], 0.0289 nM; in assay [5], 0.0357 nM. Also, the IC50 in assay [4] came out at 0.717 nM. Further, in assay [6], the affinity, expressed as Kd, was 3.71 nM. The molecule also yielded a koff in assay [6] of 0.0105 s⁻¹. The kon in assay [6] is 2.83e+06 M⁻¹ s⁻¹. Besides, the “Fold change vs chimeric antibodies (KD)” value in assay [8] stood at 50 fold.

B3: TIGIT-005-H2L1c (antibody, V domains shown)
VH: EVQLVQSGAEVKKPGASVKVSCKASGYAFTNYLIEWVRQAPGQRLEWMGVINPGSGGTNYKEKFKGRVTITADKSSSTAYMELSSLRSEDTAVYYCARGEYFFFDYWGQGTTVTVSS
VL: DIVMTQSPDSLAVSLGERATINCKASQHVSDGVAWYQHKPGQSPKLLIYSASYRYTGVPDRFSGSGSGTDFTLTISSLQAEDVAVYYCQQHYNTPHTFGGGTKVEIK
notes: as for B2
As for B3, the EC50 in assay [1] is 0.0673 nM; in assay [2], 0.0246 nM; in assay [3], 0.0268 nM; in assay [5], 0.0296 nM. Moreover, the IC50 in assay [4] was found to be 0.347 nM. For the same molecule, the Kd in assay [6] was determined as 0.184 nM. In assay [6], this molecule gave a koff of 0.000459 s⁻¹. The kon in assay [6] was determined as 2.49e+06 M⁻¹ s⁻¹. The “Fold change vs chimeric antibodies (KD)” value in assay [8] is 2.48 fold.

B4: TIGIT-005-H2L1b (antibody, V domains shown)
VH: EVQLVQSGAEVKKPGASVKVSCKASGYAFTNYLIEWVRQAPGQRLEWMGVINPGSGGTNYKEKFKGRVTITADKSSSTAYMELSSLRSEDTAVYYCARGEYFFFDYWGQGTTVTVSS
VL: DIVMTQSPDSLAVSLGERATINCKASQHVSTGVAWYQHKPGQSPKLLIYSASYRYTGVPDRFSGSGSGTDFTLTISSLQAEDVAVYYCQQHYNTPHTFGGGTKVEIK
notes: as for B2
Consider B4, for which the EC50 was 0.0368 nM in assay [1], 0.0279 nM in assay [2], 0.0238 nM in assay [3] and 0.032 nM in assay [5]. This molecule also yielded an IC50 in assay [4] of 0.358 nM. The molecule further gave a Kd in assay [6] of 0.734 nM. The koff in assay [6] came out at 0.00248 s⁻¹. Moreover, the kon in assay [6] amounted to 3.38e+06 M⁻¹ s⁻¹. In assay [8], the “Fold change vs chimeric antibodies (KD)” value turned out to be 9.89 fold.

B5: TIGIT-CHI-002 (antibody, V domains shown)
VH: EVQLQESGPGLAKPSQTLSLACSVTGYSITSDSWNWIRKFPGNKLEYMGYISYSGNTYYNPSLKSRISITRDTSKNQFYLQLNSVTTEDTATYYCARLDFSNYGGAVDYWGQGTSVTVSS
VL: DIVMTQSHTFMSTSVGDRVSITCKASQNVRTAVAWYQQKPGQSPKLMIYSASYRYTGVPDRFTGSGSGTDFTFTISSVQAEDLAVYYCQQYYTTPWTFGGGAKLEIQ
notes: Human-mouse chimeric antibody
With B5, the EC50 came to 0.0372 nM in assay [1], 0.0218 nM in assay [2], 0.0161 nM in assay [3] and 0.02 nM in assay [5]. The IC50 in assay [4] is 0.564 nM. The molecule also came in with a Kd in assay [6] of 0.0421 nM. The molecule also registered a koff in assay [6] of 0.0003 s⁻¹. The on-rate (kon) in assay [6] was 7.13e+06 M⁻¹ s⁻¹. In addition, the “Fold change vs chimeric antibodies (KD)” value in assay [7] was 1 fold.

B6: TIGIT-CHI-006 (antibody, V domains shown)
VH: EVQLQESGPGLAKPSQTPSLTCSVTGYSMTSDYWNWIRKFPGNKLEYMGYISYSGRTYYNPSLKSRISITRDTSKNQFYLQLNSVTTEDTATYYCARGDYSNYGGAMYDWGQGTSVTVSS
VL: DIVMTQSHKFMSTSVGDRVSITCRASQGVSTTIAWYQQKPGQSPKLLIYSASYRYTGVPDRFTGSGSGTDFTFTISGVQAEDLAVYYCQQYYSSPFTFGGGTKLEIK
notes: Human-mouse chimeric antibody
Take B6: the EC50 in assay [1] is 0.15 nM; in assay [2], 0.0299 nM; in assay [3], 0.0152 nM; in assay [5], 0.0258 nM. Moreover, the IC50 in assay [4] came out at 0.579 nM. In assay [6], this molecule came in with a Kd of 0.0774 nM. For the same molecule, the koff in assay [6] was 0.000162 s⁻¹. For the same molecule, in assay [6], the kon amounted to 2.09e+06 M⁻¹ s⁻¹. Also, the “Fold change vs chimeric antibodies (KD)” value in assay [7] worked out at 1 fold.

B7: TIGIT-CHI-070 (antibody, V domains shown)
VH: QVQLQQPGTELVKPGASVKLSCRASGYTFTNYYMHWVKQRPGRGLEWIGRIDPDSGGSKYNEKFKSKATLTVDKLSSTAYMQLSSLTSEDSAVYYCAREGHYGFYSDYWGQGTTLTVSS
VL: DIQMTQSPASLSASVGETVTITCRVSENIYSYLAWYQQKQGKSPQLLVYNAKTLAEGVPSRFSGSGSGTQFSLKINSLQPEDFGNYYCQHHYGNPLTFGAGTKLDLK
notes: Human-mouse chimeric antibody
With B7, the EC50 in assay [1] came out at 0.0741 nM; in assay [2], 0.033 nM; in assay [3], 0.0159 nM; in assay [5], 0.0184 nM. This molecule also came in with an IC50 in assay [4] of 0.637 nM. Moreover, binding in assay [6] was characterised by a dissociation constant (Kd) of 0.098 nM. In assay [6], this molecule had a koff of 0.000145 s⁻¹. For the same molecule, in assay [6], the kon stood at 1.48e+06 M⁻¹ s⁻¹. Also, the “Fold change vs chimeric antibodies (KD)” value in assay [7] was 1 fold.
